Measurements taken from the nanobody polyreactivity screen of Harvey et al. (2022).

Assay: yeast display, Sf9 membrane polyspecificity reagent, FACS + sequencing; frameworks hold sequencing errors
Outline: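 Galactose-induced (36–48 hours) yeast carrying a synthetic nanobody display library were exposed to 10% biotinylated, detergent-solubilized Sf9 membrane reagent at 4 °C for 1 hour. FACS followed streptavidin microbead enrichment, using low and high (top ~1%) gates for expression (anti-HA) and reagent binding (streptavidin). Colony PCR, MiSeq 2 × 250 sequencing and CDR-length filtering followed. Labels for polyreactivity reflect the gate of origin.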

Sequence	polyreactivity (PSR sort gate)
QVQLEESGGSLVQAGGSLRLSCAASGRTFYHYAMGWYRPAPGKERQLVAAISSGGSTKYADSVKGRFTISRDNAKNTVYLQMNSLKPEDTAVYYCAARTYQKGGRYYYWGQGTHVTVSS	high polyreactivity
QVQLVESGGGFVQAGGSLRLSCAASGSTFDYNTMGWYRQAPGKERELVAAISESGGSTYYADSVKGRFTISRDNAKNTVYLQMNSLKPEDTAVYYCAADTIGYHYWYDYWGQGTQVTVSS	low polyreactivity
QVQLVESGGGLVQAGGSLRLSCAASGRTFRTYTMGWYRQAPGKERELVATISWSGGSTNYADSVKGRFTISRDNAKNTVYLQMNSLKPEDTAVYYCNAYVSPRYRGSRYYYWGQGTQVTVSS	high polyreactivity
QVQLVESGGGLVQAGGSLRLSCAASGFTFGWYAMGWYRQAPGKERELVAAISWSGGSTYYADSVKGRFTISRDNAKKTVYLQMNSLKPEDTAVYYCAAYPAYGGDYWGQGTQVTVSS	high polyreactivity
QVQLVESGGGLVQAGGSLRLSCAASGSIFAVYAMGWYRQAPGKERELVAVITRSGGSTYYADSVKGRFTISRDNAKNTFYLQMNSLKPEDTAVYYCAARTGYGYTRYEYWGQGTQVTVSS	high polyreactivity
KVQLVESGGGLVQAGGSLRLSCAASGSIFIGYAMGCYRQAPGKERELVAAISYRGGSTYYADSVKGRFTISRDNAKNTVYLQMNSLKPEDTAVYYCATVLPVQQTRLGYSSRYYYWGQGTQVTVSS	high polyreactivity
QVQLVESGGGLVQAGGSLRLSCAASGFIFGNYVMGWYRPAPGKERELVAAISESGSRTYYADSVKGRFTISRDNAKNTVYLQMNSLKPEDTAVYYCAAALFSYYGEYDYWGQGTQVTVSS	low polyreactivity
QVQLVESGGGLVQAGGSLRLSCAASGRTFLYYTMGWYRQAPGTERELVATINYSGGRTYYADSVKGRFTISRDNANNTVYFQMNSLKPVATAVYFWAKSGRALWWYDYWGQGTQVTVSS	high polyreactivity
QVQLVESGGGLDQAGGSLRLSCAASGRTLYKYAMGWYRQAPGKERELVAAIRWIGGSTYYADSVKGRFTISRDNAKNTVYLQMNSLKPEDTAVYYCAATYYYSRYGRYDYWGQGTQVTVSS	high polyreactivity
QVQLVESGGGLVQAGGSLRLSCAASGFIFDLYAMGWYRQAPGKERELVAVISYDGGSTYYADSVKGRFTISRDNAKNTVYLQMNSLNPEDTAVYYCNTYAGLVSPSDLYDYWGQGTQVTVSS	low polyreactivity
QFQLVESGGGLVQAGGSLRLSCAASGFTIGPYTMAWYRQAPGKERELVAAISYSGASTYYADSVKGRFTISRDNAKNTVYLQMNSLKPEDTAVYYCNTVYRFTRARYPYDYWGQGTQVTVSS	high polyreactivity
QVHLVESGGGLVQAGGRLRLSCAASGSIFDDYAMGWYRQAPGKERELVAAITSGGSTYYADSVKGRFTISRDNAKNNVYLEMNSLKPEDTAVYYRATRYHWSSSFAPVGAYGYWGQGSQVTVSS	low polyreactivity
QVQLVESGGGLVQAGGSLRLSCAASGFIFKPYAMGWYRQAPGKERELVAAITYSGSSTYYADSVKGRFTISRDNAKNTVYLQMNSLKPEDTAVYYCAARDWSHPRRLFYWGQGTQVTVSS	high polyreactivity
QEQLQESGGGLVQAGGSLRLSCAAIGSNIPTIYMGWYRHAPGKEREFVAAIGKGCSTYYADSVKGRFTISRDNALKTVYLQMNSLIPEDNAVYYCAFDPYASQDLAYWGQGTLVTVSS	low polyreactivity
QVQLVESGGGLVQAGGSLRLSCAASGYTFRWYAMGWYRQAPGKERELVAAISWSTGRTYYADSVKGRFTISRDNAKNTVYLQMNSLKPEDNAVYYCAASYYVYSGGNYLRYDSWGQGTQVTVSS	high polyreactivity
QVQLVESGGGLVQAGGSLRLSCAASGSTFVYYTMGWYRQAPGKERELVATITYGGGSTYYADSVKGRFTISRDNAKNTVYLQMNSLKPEVTAVYYCAARPSWVRKMYYWGQGTQVTVSS	high polyreactivity
QVQLVESGRGLVQAGGSLRLSCAVSGSIGVYAMGWYRQAPGKERELVAAISKRGGSTRYADSVKGRFTISRDNAKNTVYLQMNSLKPEDTAVYYCAATGSVTGPRYAYDYWGQGTQVTVSS	high polyreactivity
